In experiment [1] the target is T1, mouse PD-1 expressed on HEK293 cells (mouse, UniProt Q02242 25-288).
T1 chain: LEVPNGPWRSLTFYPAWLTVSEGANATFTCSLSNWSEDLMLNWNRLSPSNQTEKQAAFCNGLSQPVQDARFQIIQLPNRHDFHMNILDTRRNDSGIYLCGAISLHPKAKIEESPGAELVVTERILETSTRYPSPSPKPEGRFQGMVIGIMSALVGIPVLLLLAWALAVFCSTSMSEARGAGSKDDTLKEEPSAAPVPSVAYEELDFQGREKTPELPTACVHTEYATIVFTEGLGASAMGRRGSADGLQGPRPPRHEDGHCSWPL
As to the kind of experiment: flow cytometry blocking; blocking of biotin-mPD-L2. On the technique in general: Flow cytometry measures light scatter and fluorescence of single cells or particles in a stream.

Experiment [2] has as its target T1, mouse PD-1 expressed on HEK293 cells. The experiment in a line: flow cytometry cell binding.
The target is the same in experiment [3]. As to the kind of experiment: flow cytometry blocking; blocking of biotin-mPD-L1.
The target of experiment [4] is T2, human PD-1-Fc (R and D systems, Minneapolis, Minn.) (human, UniProt Q15116 25-167). The experiment in a line: ELISA; upper left panel. On the technique in general: ELISA stands for enzyme-linked immunosorbent assay.
Experiment [5] concerns the target T2, human PD-1-Fc (R and D systems, …). The experiment in a line: ELISA; lower left panel.
For experiment [6] the target is unchanged. The experiment in a line: inhibition ELISA; hPDL-1 Fc blockade.
For experiment [7] the target is unchanged. As to the kind of experiment: ELISA; lower right panel.
The target is the same in experiment [8]. As to the kind of experiment: inhibition ELISA; hPDL-1 Fc blockade. This is another data set of the same source.
Experiment [9] has the same target. The experiment in a line: inhibition ELISA; hPDL-2 Fc blockade.
The target is the same in experiment [10]. The experiment in a line: ELISA; upper right panel.
Experiment [11] deals with human PD-1-His (R & D systems, Minneapolis, Minn.) (human, UniProt Q15116 25-167). As to the kind of experiment: BLI. A general note: In BLI a coated tip is dipped into the sample, and binding shifts an interference pattern.
Experiment [12] addresses T2, human PD-1-Fc (R and D systems, …). As to the kind of experiment: inhibition ELISA; hPDL-2 Fc blockade. The source holds these as a separate data set.
The target is the same in experiment [13]. The experiment in a line: inhibition ELISA; hPDL-1 Fc blockade. This is another data set of the same source.
Experiment [14] shares this target. As to the kind of experiment: inhibition ELISA; hPDL-2 Fc blockade. The source holds these as a separate data set.

In patent US20170044259A1 (published 2017) one finds EC50, Kd and IC50 data, which are given here for four molecules.

Substitutions are numbered along the chain they refer to.

T2 sequence (Q15116 25-167): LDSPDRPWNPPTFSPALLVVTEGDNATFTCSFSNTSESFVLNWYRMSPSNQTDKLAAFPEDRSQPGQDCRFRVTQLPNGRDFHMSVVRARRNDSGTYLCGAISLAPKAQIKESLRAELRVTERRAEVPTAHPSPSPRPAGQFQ
Sequence of human PD-1-His (R & D systems, Minneapolis, Minn.) (Q15116 25-167): as above

B1: J43v2 mIgG2a (antibody, V domains shown)
VH: EVRLLESGGGLVKPEGSLKLSCVASGFTFSDYFMSWVRQAPGKGLEWVAHIYTKSYNYATYYSGSVKGRFTISRDDSRSMVYLQMNNLRTEDTATYYCTRDGSGYPSLDFWGQGTQVTVSS
VL: YELTQPPSASVNVGETVKITCSGDQLPKYFADWFHQRSDQTILQVIYDDNKRPSGIPERISGSSSGTTATLTIRDVRAEDEGDYYCFSGYVDSDSKLYVFGSGTQLTVLG
On to B1, for which the figures for the EC50 in experiment [1], in experiment [2] and in experiment [3] were 5.9 nM, 4.31 nM and 6.06 nM, respectively.

B2: A1.5 (antibody)
heavy: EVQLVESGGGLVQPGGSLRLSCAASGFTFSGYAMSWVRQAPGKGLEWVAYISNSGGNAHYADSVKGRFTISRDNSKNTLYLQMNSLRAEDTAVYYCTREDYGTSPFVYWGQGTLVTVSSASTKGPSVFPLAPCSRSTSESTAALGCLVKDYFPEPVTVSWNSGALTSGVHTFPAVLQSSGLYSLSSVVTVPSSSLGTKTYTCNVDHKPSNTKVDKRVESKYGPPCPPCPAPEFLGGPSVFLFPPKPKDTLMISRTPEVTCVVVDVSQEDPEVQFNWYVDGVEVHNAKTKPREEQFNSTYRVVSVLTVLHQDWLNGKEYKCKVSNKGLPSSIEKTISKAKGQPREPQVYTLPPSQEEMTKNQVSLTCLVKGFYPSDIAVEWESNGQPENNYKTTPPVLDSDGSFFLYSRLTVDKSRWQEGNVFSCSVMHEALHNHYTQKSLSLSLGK
light: DIQLTQSPSSLSASVGDRVTITCRASESVDAYGISFMNWFQQKPGKAPKLLIYAASNQGSGVPSRFSGSGSGTDFTLTISSMQPEDFATYYCQQSKDVPWTFGQGTKLEIKRTVAAPSVFIFPPSDEQLKSGTASVVCLLNNFYPREAKVQWKVDNALQSGNSQESVTEQDSKDSTYSLSSTLTLSKADYEKHKVYACEVTHQGLSSPVTKSFNRGEC
For the molecule B2, the Kd in experiment [4] was 0.162 nM; in experiment [5], 0.16 nM; in experiment [7] it was 0.176 nM; in experiment [10], 0.18 nM; in [11], 1.48 nM. In addition, the results for the IC50 in experiment [6], in [8] and in [9] were 1.4 nM, 4.25 nM and 2.94 nM, respectively.

B3: C1.1 (antibody, V domains shown)
VH: EVQLVESGGGLVQPGGSLRLSCAASGFTFSNYAMSWVRQAPGKGLEWVAYISNGGGDTHYADSLKGRFTVSRDNSKNTLYLQMNSLRAEDTAVYYCARENYGTSPFVYWGQGTLVTVSS
VL: DIQLTQSPSSLSVSVGDRATITCRASESVDNYGISFMNWFQQKPGKAPKLLIYAASNQGSGVPSRFSGSGSGTDFTLTISSMQPEDFATYYCQQSKDVPWTFGQGTKLEIKR
Turning to B3, the IC50 in experiment [12] came to 1.2 nM; in [6], 1.32 nM; in experiment [8], 3.73 nM; in [9], 3.07 nM. Besides, the Kd in experiment [11] stood at 12.4 nM.

B4: A1.4 (antibody, V domains shown)
VH: B3 VH with N31G, G54S, D57N, T58A, L64V, V70I, A97T, N100D
VL: B3 VL with V13A, A19V, N31S
Consider B4, for which the IC50 was 1.92 nM in experiment [13] and 1.29 nM in experiment [14].

Usually EC50 stands for the concentration giving half of the maximal effect. A lower EC50 goes with a more potent agent. Broadly, the Kd is the equilibrium constant for the complex coming apart. Read a low Kd as a tighter complex. As a reminder, the IC50 is the concentration that inhibits the measured activity by half. A low value points to greater potency in that assay.
